Consider seven molecules from paper doi:10.1101/2021.10.01.462756 (bioRxiv, 2021).

B1: Ddc1 (natural protein)
chain: MSFKATITESGKQNIWFRAIYVLSTIQDDIKITVTTNELIAWSMNETDTTLCQVRFQKSFFEEYEFKPHEIVFGENGVQVIEDTYGNSHKLYSFRVNGRHLTTISRKPDGDGIKSFTIAVNNTSTCPESLANRLIVVIEMDSLIVKEYCPQFQPIKYDPIIINLKYKRRFLDVFGTAASDRNPQEPLDPKLLDVFTNTERELTSALFNEEVESDIRKRNQLTAADEINYICCNSTLLKNFLDNCNVNVTDEVKLEINVHRLSITAFTKAVYGKNNDLLRNALSMSNTISTLDLEHYCLFTTIEDEKQDKRSHSKRREHMKSIIFKLKDFKNFITIGPSWKTTQDGNDNISLWFCHPGDPILMQMQKPGVKLELVEVTDSNINDDILEGKFIKTAISGSKEEAGLKDNKESCESPLKSKTALKRENLPHSVAGTRNSPLKVSYLTPDNGSTVAKTYRNNTARKLFVEEQSQSTNYEQDKRFRQASSVHMNMNREQSFDIGTTHEVACPRNESNSLKRSIADICNETEDPTQQSTFAKRADTTVTWGKALPAADDEVSCSNIDRKGMLKKEKLKHMQGLLNSQNDTSNHKKQDNKEMEDGLGLTQVEKPRGIFD
B6: Rad24 (natural protein)
chain: MDSTNLNKRPLLQYSLSSLGSQITKWSSSRPTSPVRKARSTENDFLSKQDTSSILPSINDDGGEQWYEKFKPNCLEQVAIHKRKLKDVQEALDAMFLPNAKHRILLLSGPSGCSKSTVIKELSKILVPKYRQNSNGTSFRSTPNEHKVTEFRGDCIVNDLPQMESFSEFLKGARYLVMSNLSLILIEDLPNVFHIDTRRRFQQLILQWLYSSEPLLPPLVICITECEIPENDNNYRKFGIDYTFSAETIMNKEILMHPRLKRIKFNPINSTLLKKHLKFICVQNMKMLKEKNKWNKRQEVIDYIAQETGDIRSAITTLQFWATSSGSLPISTRESTISYFHAIGKVIHGSHSTNNDNEMINNLFENSNNLLSKEDFKLGILENYNTFNKGEFSISDASSIVDCLSECDNMNGLPESNEYGLREVRKTFRNISKQGHNHGTVYFPREWKVRKLQNSFKVQAEDWLNVSLYKYNAVHSFRNITLEFGYYAPLIRKCQSYKKKYILYYLKNLPSGSSGPKQTMDKFSDIMKVENGIDVVDRIGGPIEALSVEDGLAPLMDNDSNNCDHLEDQKKERDRRLRMLIDQYERNVMMANDDLEDEETSFNDDPIVDSDSDNSNNIGNETFGRSDEDESLCEILSQRQPRKAPVISESLSDSDLEIL

What all share (assay): cryo-EM structure
The test “Rad24” deals with B6.
For another test, the target named is T1, Rad17 (S. cerevisiae, UniProt P48581 1-401).
T1 sequence: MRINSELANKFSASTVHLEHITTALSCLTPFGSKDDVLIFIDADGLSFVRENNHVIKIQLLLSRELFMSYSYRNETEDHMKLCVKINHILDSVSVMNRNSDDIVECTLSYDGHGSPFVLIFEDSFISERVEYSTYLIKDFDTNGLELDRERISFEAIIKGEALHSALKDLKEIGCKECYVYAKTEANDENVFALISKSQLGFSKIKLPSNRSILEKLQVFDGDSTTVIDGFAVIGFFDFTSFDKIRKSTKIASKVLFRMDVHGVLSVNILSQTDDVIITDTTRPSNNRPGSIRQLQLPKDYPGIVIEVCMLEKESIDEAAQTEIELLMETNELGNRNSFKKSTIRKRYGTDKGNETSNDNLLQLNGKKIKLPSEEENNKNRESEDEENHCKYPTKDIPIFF

In the test “Ddc1” the target is B1.
Test [1] addresses T2, 9-1-1 clamp (Ddc1–Mec3–Rad17) (S. cerevisiae, UniProt Q08949;Q02574;P48581).
T2 sequence 1: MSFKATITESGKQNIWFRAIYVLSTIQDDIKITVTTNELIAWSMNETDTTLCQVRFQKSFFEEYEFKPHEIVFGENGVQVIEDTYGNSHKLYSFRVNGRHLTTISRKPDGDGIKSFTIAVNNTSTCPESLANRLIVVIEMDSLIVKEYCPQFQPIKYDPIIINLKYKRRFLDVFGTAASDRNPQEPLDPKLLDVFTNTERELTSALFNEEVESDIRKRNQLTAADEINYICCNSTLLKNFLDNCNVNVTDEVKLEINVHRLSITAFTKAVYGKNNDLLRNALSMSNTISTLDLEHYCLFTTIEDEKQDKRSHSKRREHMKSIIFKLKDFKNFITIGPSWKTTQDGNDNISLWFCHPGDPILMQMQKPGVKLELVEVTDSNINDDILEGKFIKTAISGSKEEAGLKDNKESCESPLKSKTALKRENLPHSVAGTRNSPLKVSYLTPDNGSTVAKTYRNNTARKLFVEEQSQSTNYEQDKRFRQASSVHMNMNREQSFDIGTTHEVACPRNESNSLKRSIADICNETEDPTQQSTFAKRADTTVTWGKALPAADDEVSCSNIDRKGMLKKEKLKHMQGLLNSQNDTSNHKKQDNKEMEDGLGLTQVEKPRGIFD
T2 sequence 2: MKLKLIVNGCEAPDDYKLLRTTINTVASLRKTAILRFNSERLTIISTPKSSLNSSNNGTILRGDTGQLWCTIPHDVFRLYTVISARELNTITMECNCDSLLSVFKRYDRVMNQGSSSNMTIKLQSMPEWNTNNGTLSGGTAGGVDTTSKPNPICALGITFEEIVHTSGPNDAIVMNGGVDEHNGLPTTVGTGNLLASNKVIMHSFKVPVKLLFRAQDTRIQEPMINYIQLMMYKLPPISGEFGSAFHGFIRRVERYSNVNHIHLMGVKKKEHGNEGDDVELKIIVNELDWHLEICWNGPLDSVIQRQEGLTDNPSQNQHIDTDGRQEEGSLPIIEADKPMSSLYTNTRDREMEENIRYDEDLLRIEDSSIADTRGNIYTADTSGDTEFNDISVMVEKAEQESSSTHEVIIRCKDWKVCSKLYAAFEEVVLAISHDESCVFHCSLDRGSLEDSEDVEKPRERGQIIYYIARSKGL
T2 sequence 3: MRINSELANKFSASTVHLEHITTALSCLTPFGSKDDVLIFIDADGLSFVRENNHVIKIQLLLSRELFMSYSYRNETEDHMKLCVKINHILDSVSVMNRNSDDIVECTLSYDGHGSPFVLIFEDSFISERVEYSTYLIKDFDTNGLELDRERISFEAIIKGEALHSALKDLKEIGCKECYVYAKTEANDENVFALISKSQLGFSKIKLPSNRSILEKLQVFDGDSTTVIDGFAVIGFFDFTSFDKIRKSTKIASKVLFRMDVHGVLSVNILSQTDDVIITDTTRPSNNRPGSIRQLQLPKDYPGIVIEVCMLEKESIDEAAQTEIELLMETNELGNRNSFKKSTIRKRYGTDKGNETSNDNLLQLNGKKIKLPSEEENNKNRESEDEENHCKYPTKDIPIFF

With B1, in the test with Rad24, the binding result is “binds”.

B2: Rfc3 (natural protein)
chain: MSTSTEKRSKENLPWVEKYRPETLDEVYGQNEVITTVRKFVDEGKLPHLLFYGPPGTGKTSTIVALAREIYGKNYSNMVLELNASDDRGIDVVRNQIKDFASTRQIFSKGFKLIILDEADAMTNAAQNALRRVIERYTKNTRFCVLANYAHKLTPALLSRCTRFRFQPLPQEAIERRIANVLVHEKLKLSPNAEKALIELSNGDMRRVLNVLQSCKATLDNPDEDEISDDVIYECCGAPRPSDLKAVLKSILEDDWGTAHYTLNKVRSAKGLALIDLIEGIVKILEDYELQNEETRVHLLTKLADIEYSISKGGNDQIQGSAVIGAIKASFENETVKANV
For the molecule B2, in the test with Rad17, the binding result is “binds”.

B3: Rfc4 (natural protein)
chain: MSKTLSLQLPWVEKYRPQVLSDIVGNKETIDRLQQIAKDGNMPHMIISGMPGIGKTTSVHCLAHELLGRSYADGVLELNASDDRGIDVVRNQIKHFAQKKLHLPPGKHKIVILDEADSMTAGAQQALRRTMELYSNSTRFAFACNQSNKIIEPLQSRCAILRYSKLSDEDVLKRLLQIIKLEDVKYTNDGLEAIIFTAEGDMRQAINNLQSTVAGHGLVNADNVFKIVDSPHPLIVKKMLLASNLEDSIQILRTDLWKKGYSSIDIVTTSFRVTKNLAQVKESVRLEMIKEIGLTHMRILEGVGTYLQLASMLAKIHKLNNKA
As for B3, the binding result in the test with Rad24 and with Rad17 was “binds” throughout.

B4: His-PK-Mec3 (natural protein)
chain: MKLKLIVNGCEAPDDYKLLRTTINTVASLRKTAILRFNSERLTIISTPKSSLNSSNNGTILRGDTGQLWCTIPHDVFRLYTVISARELNTITMECNCDSLLSVFKRYDRVMNQGSSSNMTIKLQSMPEWNTNNGTLSGGTAGGVDTTSKPNPICALGITFEEIVHTSGPNDAIVMNGGVDEHNGLPTTVGTGNLLASNKVIMHSFKVPVKLLFRAQDTRIQEPMINYIQLMMYKLPPISGEFGSAFHGFIRRVERYSNVNHIHLMGVKKKEHGNEGDDVELKIIVNELDWHLEICWNGPLDSVIQRQEGLTDNPSQNQHIDTDGRQEEGSLPIIEADKPMSSLYTNTRDREMEENIRYDEDLLRIEDSSIADTRGNIYTADTSGDTEFNDISVMVEKAEQESSSTHEVIIRCKDWKVCSKLYAAFEEVVLAISHDESCVFHCSLDRGSLEDSEDVEKPRERGQIIYYIARSKGL
For the molecule B4, the binding result with Ddc1 is on record as “binds”.

B5: Rfc5 (natural protein)
chain: MSLWVDKYRPKSLNALSHNEELTNFLKSLSDQPRDLPHLLLYGPNGTGKKTRCMALLESIFGPGVYRLKIDVRQFVTASNRKLELNVVSSPYHLEITPSDMGNNDRIVIQELLKEVAQMEQVDFQDSKDGLAHRYKCVIINEANSLTKDAQAALRRTMEKYSKNIRLIMVCDSMSPIIAPIKSRCLLIRCPAPSDSEISTILSDVVTNERIQLETKDILKRIAQASNGNLRVSLLMLESMALNNELALKSSSPIIKPDWIIVIHKLTRKIVKERSVNSLIECRAVLYDLLAHCIPANIILKELTFSLLDVETLNTTNKSSIIEYSSVFDERLSLGNKAIFHLEGFIAKVMCCLD
Take B5: the binding result (with Rad24; in test [1]) was “binds” in each case.
For the molecule B6, in test [1], the binding result is listed as “binds”.

B7: Rfc2 (natural protein)
chain: MFEGFGPNKKRKISKLAAEQSLAQQPWVEKYRPKNLDEVTAQDHAVTVLKKTLKSANLPHMLFYGPPGTGKTSTILALTKELYGPDLMKSRILELNASDERGISIVREKVKNFARLTVSKPSKHDLENYPCPPYKIIILDEADSMTADAQSALRRTMETYSGVTRFCLICNYVTRIIDPLASRCSKFRFKALDASNAIDRLRFISEQENVKCDDGVLERILDISAGDLRRGITLLQSASKGAQYLGDGKNITSTQVEELAGVVPHDILIEIVEKVKSGDFDEIKKYVNTFMKSGWSAASVVNQLHEYYITNDNFDTNFKNQISWLLFTTDSRLNNGTNEHIQLLNLLVKISQL
Consider B7, for which the binding result with Ddc1 is recorded as “binds”.
